From the supplement of paper PMC9112550, “Optimization of the antimicrobial peptide Bac7 by deep mutational scanning” (BMC Biology, 2022)

Test system: Escherichia coli TOP10
Test: shrunken log2 fold change of peptide-encoding DNA abundance (4.5 h post-induction vs induction); higher = less antimicrobial activity (less host growth inhibition)
Conditions: time post-induction: 4.5 h; library: site-saturation at positions 5, 18, 19, 20
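Further: peptides expressed intracellularly from a pBAD plasmid library in pooled LB shake-flask culture, induced with 0.3% L-arabinose, DNA abundance read by NGS, three biological replicates, DESeq2 with apeglm shrinkage.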

Sequence	shrunken log2 fold change
RRIRDRPPRLPRPRPRPHELPRP	-0.124
RRIRDRPPRLPRPRPRPHGFPRP	-0.00776
RRIRDRPPRLPRPRPRPHIIPRP	-1.27
RRIRDRPPRLPRPRPRPHKFPRP	-0.122
RRIRDRPPRLPRPRPRPHKPPRP	-0.000627
RRIRDRPPRLPRPRPRPHKSPRP	-0.17
RRIRDRPPRLPRPRPRPHNNPRP	-0.604
RRIRDRPPRLPRPRPRPHPGPRP	0.163
RRIRDRPPRLPRPRPRPHPVPRP	-0.0422
RRIRDRPPRLPRPRPRPHQDPRP	0.00101
RRIRDRPPRLPRPRPRPHQEPRP	-0.281
RRIRDRPPRLPRPRPRPHQVPRP	-0.00776
RRIRDRPPRLPRPRPRPHSDPRP	-0.115
RRIRDRPPRLPRPRPRPHSRPRP	-0.328
RRIRDRPPRLPRPRPRPHSSPRP	0.217
RRIRDRPPRLPRPRPRPHVCPRP	-0.00727
RRIRDRPPRLPRPRPRPHVYPRP	-0.0179
RRIRDRPPRLPRPRPRPHYCPRP	-0.0438
RRIRDRPPRLPRPRPRPICIPRP	0.0464
RRIRDRPPRLPRPRPRPICLPRP	0.0829
RRIRDRPPRLPRPRPRPIDPPRP	-0.107
RRIRDRPPRLPRPRPRPIFMPRP	-0.285
RRIRDRPPRLPRPRPRPIFQPRP	0.242
RRIRDRPPRLPRPRPRPIGTPRP	0.208
RRIRDRPPRLPRPRPRPILCPRP	0.0322

Sequence	shrunken log2 fold change
RRIRDRPPRLPRPRPRPILQPRP	-0.0838
RRIRDRPPRLPRPRPRPILRPRP	-0.0119
RRIRDRPPRLPRPRPRPIPMPRP	-0.00947
RRIRDRPPRLPRPRPRPIPTPRP	0.00396
RRIRDRPPRLPRPRPRPIQVPRP	-0.0916
RRIRDRPPRLPRPRPRPIRRPRP	-0.00194
RRIRDRPPRLPRPRPRPIVLPRP	-0.176
RRIRDRPPRLPRPRPRPIWSPRP	-0.0288
RRIRDRPPRLPRPRPRPKALPRP	-0.00674
RRIRDRPPRLPRPRPRPKCIPRP	-0.318
RRIRDRPPRLPRPRPRPKDKPRP	0.0636
RRIRDRPPRLPRPRPRPKHFPRP	-0.15
RRIRDRPPRLPRPRPRPKIIPRP	-0.0166
RRIRDRPPRLPRPRPRPKMCPRP	-0.0407
RRIRDRPPRLPRPRPRPKMTPRP	0.093
RRIRDRPPRLPRPRPRPKSDPRP	0.295
RRIRDRPPRLPRPRPRPKVCPRP	-0.0149
RRIRDRPPRLPRPRPRPKWNPRP	-0.159
RRIRDRPPRLPRPRPRPKWVPRP	0.538
RRIRDRPPRLPRPRPRPKYCPRP	-0.0392
RRIRDRPPRLPRPRPRPKYLPRP	-0.131
RRIRDRPPRLPRPRPRPKYYPRP	-0.193
RRIRDRPPRLPRPRPRPLAAPRP	0.913
RRIRDRPPRLPRPRPRPLEHPRP	-0.164
RRIRDRPPRLPRPRPRPLENPRP	0.035

Sequence	shrunken log2 fold change
RRIRDRPPRLPRPRPRPLERPRP	0.464
RRIRDRPPRLPRPRPRPLEYPRP	0.061
RRIRDRPPRLPRPRPRPLFDPRP	0.393
RRIRDRPPRLPRPRPRPLFSPRP	0.0525
RRIRDRPPRLPRPRPRPLGQPRP	0.0401
RRIRDRPPRLPRPRPRPLHMPRP	-0.0438
RRIRDRPPRLPRPRPRPLINPRP	0.125
RRIRDRPPRLPRPRPRPLIYPRP	-0.653
RRIRDRPPRLPRPRPRPLKMPRP	0.122
RRIRDRPPRLPRPRPRPLKNPRP	0.0245
RRIRDRPPRLPRPRPRPLKQPRP	0.681
RRIRDRPPRLPRPRPRPLLIPRP	0.338
RRIRDRPPRLPRPRPRPLLPPRP	0.356
RRIRDRPPRLPRPRPRPLMKPRP	-0.19
RRIRDRPPRLPRPRPRPLMPPRP	0.097
RRIRDRPPRLPRPRPRPLQEPRP	0.223
RRIRDRPPRLPRPRPRPLQKPRP	-0.0982
RRIRDRPPRLPRPRPRPLRFPRP	0.61
RRIRDRPPRLPRPRPRPLRYPRP	0.00765
RRIRDRPPRLPRPRPRPLSEPRP	0.111
RRIRDRPPRLPRPRPRPLSGPRP	-0.0838
RRIRDRPPRLPRPRPRPLSSPRP	0.184
RRIRDRPPRLPRPRPRPLTRPRP	-0.00589
RRIRDRPPRLPRPRPRPLWFPRP	-0.0862
RRIRDRPPRLPRPRPRPLWRPRP	0.152
